Reference: US20040166530A1 (BAYLOR COLLEGE OF MEDICINE, published 2004)

What was measured:
[1] = target: phosphorylated IκB peptide (residues 21-41, phosphorylated on Ser-32 and Ser-36); assay: HeLa lysate on IκB peptide beads, anti-Skp1 immunoblot (FIG. 8)
[2] = target: Flag-Cdc4 (Cdc4^F) (S. cerevisiae) (UniProt P07834); assay: binding reaction with anti-Flag (Cdc4^F) immune complexes with increasing Skp1, immunoblot (FIG. 2D)
[3] = target: T1, Grr1/Skp1^F/Cdc53 complex (S. cerevisiae, UniProt P24814 1-1151; P52286 1-194; Q12018 1-815); assay: binding of 32P-labeled Sic1 complexes to anti-Skp1^F immune complexes, autoradiography (FIG. 4B)
T1 construct: also called Cdc53/Skp1/Grr1 complex; Grr1/Skp1/Cdc53 complex; not shown: N-terminal His6-G10 (T7 gene 10) tag; N-terminal Flag tag; N-terminal Myc tag
T1 sequence (P24814 whole entry, chain 1 of 2): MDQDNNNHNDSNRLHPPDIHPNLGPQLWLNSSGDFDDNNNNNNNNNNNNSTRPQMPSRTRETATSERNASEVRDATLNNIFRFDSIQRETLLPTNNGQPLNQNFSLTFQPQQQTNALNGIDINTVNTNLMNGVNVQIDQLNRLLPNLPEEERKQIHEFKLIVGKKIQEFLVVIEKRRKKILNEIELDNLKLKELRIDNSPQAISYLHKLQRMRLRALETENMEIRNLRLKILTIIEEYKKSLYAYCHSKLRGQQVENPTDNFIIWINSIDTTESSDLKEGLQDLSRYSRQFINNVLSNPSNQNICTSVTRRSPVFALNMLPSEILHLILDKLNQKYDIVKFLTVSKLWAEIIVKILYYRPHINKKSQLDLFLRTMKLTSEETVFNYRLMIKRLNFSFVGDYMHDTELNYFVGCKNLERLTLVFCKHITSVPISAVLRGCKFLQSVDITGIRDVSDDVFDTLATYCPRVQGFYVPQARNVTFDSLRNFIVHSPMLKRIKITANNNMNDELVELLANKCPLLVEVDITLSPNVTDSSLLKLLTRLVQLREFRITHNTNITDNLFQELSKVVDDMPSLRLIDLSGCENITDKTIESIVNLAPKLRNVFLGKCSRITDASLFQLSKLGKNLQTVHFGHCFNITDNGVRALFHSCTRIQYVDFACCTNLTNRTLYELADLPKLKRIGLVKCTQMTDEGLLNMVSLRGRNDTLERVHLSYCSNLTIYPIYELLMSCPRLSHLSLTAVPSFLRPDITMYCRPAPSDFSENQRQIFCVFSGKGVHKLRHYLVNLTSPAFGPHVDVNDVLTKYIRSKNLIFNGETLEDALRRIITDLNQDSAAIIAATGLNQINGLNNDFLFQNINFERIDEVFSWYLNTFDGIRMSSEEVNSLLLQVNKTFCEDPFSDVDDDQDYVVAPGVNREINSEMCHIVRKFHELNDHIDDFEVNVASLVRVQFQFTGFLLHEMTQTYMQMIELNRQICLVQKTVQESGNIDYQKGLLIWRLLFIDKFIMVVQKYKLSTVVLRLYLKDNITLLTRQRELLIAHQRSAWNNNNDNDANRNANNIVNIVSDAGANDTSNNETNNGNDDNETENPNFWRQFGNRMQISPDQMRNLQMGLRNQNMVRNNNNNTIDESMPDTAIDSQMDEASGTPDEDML
T1 sequence (P52286 whole entry, chain 2 of 2): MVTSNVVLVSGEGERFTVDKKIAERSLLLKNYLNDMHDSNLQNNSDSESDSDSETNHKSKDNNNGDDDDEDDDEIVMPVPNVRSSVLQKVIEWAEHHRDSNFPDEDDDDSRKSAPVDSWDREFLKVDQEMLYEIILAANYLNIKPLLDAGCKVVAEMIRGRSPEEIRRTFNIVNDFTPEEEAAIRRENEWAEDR
Description: These experiments were conducted as described above, with the exception being that Grr1 was substituted for Cdc4 (approximately 100 ng). Proteins were separated by SDS-PAGE, and blotted with anti-Skp1 anti-Myc to detect Grr1G10 and Cdc53^M, with anti-Skp1 antibodies.
In this Figure, lanes 2-5 contain anti-Skp1^F immune complexes derived from insect cells infected with the indicated baculovirus combinations were used for binding reactions with ³²P-labeled Sic1 complexes. Ten percent of the input Sic1 complex (lane 1) was included as a control. The presence of Cdc4, Skp1, Cdc53, and Grr1 was verified by immunoblotting.

[4] = target: Cdc4/Skp1^F complex (S. cerevisiae) (UniProt P52286); assay: binding of 32P-labeled Cln kinase complexes to anti-Skp1^F immune complexes, autoradiography (FIG. 5A)
Chain of Cdc4/Skp1^F complex (S. cerevisiae) (P52286 whole entry, one chain of several): as the sequence (P52286 whole entry, chain 2 of 2) above

[5] = target: T1, Grr1/Skp1^F/Cdc53 complex; assay: as above
[6] = target: T2, Myc-tagged Cdc53 (Cdc53^M) (S. cerevisiae, UniProt Q12018 1-815); assay: anti-Myc immunoprecipitation from co-infected insect cells, immunoblot (FIG. 1A)
T2 construct: Expressed from baculovirus in insect cells; not shown: N-terminal Myc tag
T2 sequence (looked up): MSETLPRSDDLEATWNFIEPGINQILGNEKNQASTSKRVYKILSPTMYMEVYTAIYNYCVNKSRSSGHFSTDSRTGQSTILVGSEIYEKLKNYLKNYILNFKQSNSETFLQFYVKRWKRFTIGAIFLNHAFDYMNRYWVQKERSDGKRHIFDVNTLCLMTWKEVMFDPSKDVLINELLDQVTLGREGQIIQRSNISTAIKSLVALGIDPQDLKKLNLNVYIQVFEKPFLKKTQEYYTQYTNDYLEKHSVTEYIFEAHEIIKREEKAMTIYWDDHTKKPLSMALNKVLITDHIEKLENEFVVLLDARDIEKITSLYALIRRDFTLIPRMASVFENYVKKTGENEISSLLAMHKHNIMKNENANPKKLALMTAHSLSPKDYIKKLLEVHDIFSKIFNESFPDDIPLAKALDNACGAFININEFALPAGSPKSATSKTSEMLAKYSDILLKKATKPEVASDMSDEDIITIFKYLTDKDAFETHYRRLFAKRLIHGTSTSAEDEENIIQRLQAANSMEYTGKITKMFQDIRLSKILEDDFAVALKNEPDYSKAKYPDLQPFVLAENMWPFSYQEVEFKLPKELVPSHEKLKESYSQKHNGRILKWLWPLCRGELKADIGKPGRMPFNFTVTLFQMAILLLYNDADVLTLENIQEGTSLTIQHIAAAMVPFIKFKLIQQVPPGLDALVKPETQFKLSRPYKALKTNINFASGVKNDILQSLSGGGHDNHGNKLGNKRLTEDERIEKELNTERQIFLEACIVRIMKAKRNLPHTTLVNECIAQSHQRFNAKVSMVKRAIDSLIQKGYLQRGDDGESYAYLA
Text: Insect cells were co-infected with various combinations of baculoviruses expressing Myc-tagged Cdc53 (Cdc53^M), Cdc34, Cdc4, and Skp1. Anti-Myc immune complexes from lysates of these infected cells were immunoblotted to identify associated proteins (See, FIG. 1A). […] Thus, one function of Skp1 is to facilitate association of Cdc53 with Cdc4. […] Furthermore, it appeared that Cdc53 can simultaneously associate with both Cdc34 and Skp1, as the association of Gst-Skp1 with Cdc34 is enhanced in the presence of Cdc53^M (See, FIG. 1C).
For recombinant protein expression and assembly of complexes, 4×10⁵ insect cells (Hi5, Invitrogen) were infected with the indicated virus combinations for 40 hours. These combinations included baculoviruses expressing Myc-tagged Cdc53 (Cdc53^M), Cdc34, Cdc4, and Skp1. Cells were then harvested and disrupted in lysis buffer (50 mM Tris-HCl (pH 7.5), 150 mM NaCl, 0.5% Nonidet P40, 10 mM NaF, 10 mM β-glycerol phosphate, 1 mM PMSF, and 5 μg/ml each leupeptin, antipain, and aprotinin). For isolation of protein complexes, typically about 3 ml of lysis buffer was used per 0.5×10⁸ cells.
To examine the assembly of recombinant yeast proteins, 0.4 ml lysate were typically derived from 2×10⁶ cells. […]

[7] = target: T2, Myc-tagged Cdc53 (Cdc53^M); assay: anti-Cdc53^M immune complexes from insect cells, immunoblot (FIG. 2C)
Description: To examine the assembly of recombinant yeast proteins, 0.4 ml lysate were typically derived from 2×10⁶ cells. […] Immunopurification was performed by incubating the lysates at 4° C. for 2 hours with 4 μg of the anti-Myc or anti-G10 antibody and 8 μl of Protein A-Sepharose, or with 8 μl of immobilized anti-Flag antibodies (Kodak; See, Example 1). Immune complexes were washed three times with 1 ml of lysis butter prior to SDS-PAGE.
Associated proteins were then washed three times with 1 ml of lysis buffer prior to SDS-PAGE and immunoblotting, were performed as described above.
As shown in this Figure, phosphorylated Sic1 efficiently associates with Cdc53/Skp1/Cdc4 complexes, and this association is dependent upon the presence of Skp1 (See, FIG. 2C, lanes 6 and 8). Typically, 10-20% of the input phosphorylated Sic1 was bound at about 20 nM Sic1. […] Consistent with the results in FIG. 1, the level of Cdc4 found in immune complexes lacking Skp1 were >10-fold lower than that found in the presence of Skp1.

Chain of phosphorylated IκB peptide (residues 21-41, phosphorylated on Ser-32 and Ser-36) (peptide, as listed by the source): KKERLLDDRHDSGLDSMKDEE

Molecule: Skp1 (in HeLa cell lysates) (from UniProt P63208 2-163)
- percent of the Skp1 in the extracts that can associate with IκB [1]: 1%

B1: phosphorylated Sic1 (other, S. cerevisiae, UniProt P38634 1-284, looked up)
chain: MTPSTPPRSRGTRYLAQPSGNTSSSALMQGQKTPQKPSQNLVPVTPSTTKSFKNAPLLAPPNSNMGMTSPFNGLTSPQRSPFPKSSVKRTLFQFESHDNGTVREEQEPLGRVNRILFPTQQNVDIDAAEEEEEGEVLLPPSRPTSARQLHLSLERDEFDQTHRKKIIKDVPGTPSDKVITFELAKNWNNNSPKNDARSQESEDEEDIIINPVRVGKNPFASDELVTQEIRNERKRAMLRENPDIEDVITYVNKKGEVVEKRRLTDEEKRRFKPKALFQSRDQEH
modifications: phosphorylated in vitro by Gst-Cdc28HA/Cln1HA/Cks1 with ATP; sites not stated
notes: also called Cln1/Cdc28-phosphorylated Sic1; phosphorylated Sic1 complexes
- fold stimulation by Skp1 of the association of Sic1 with Cdc4 [2]: 5 fold
- binding result [3]: no binding

B2: phosphorylated Cln1HA (protein, S. cerevisiae, UniProt P20437 1-546, looked up, not shown: small tags and cut ends)
chain: MNHSEVKTGLIVTAKQTYYPIELSNAELLTHYETIQEYHEEISQNVLVQSSKTKPDIKLIDQQPEMNPHQTREAIVTFLYQLSVMTRVSNGIFFHAVRFYDRYCSKRVVLKDQAKLVVGTCLWLAAKTWGGCNHIINNVSIPTGGRFYGPNPRARIPRLSELVHYCGGSDLFDESMFIQMERHILDTLNWDVYEPMINDYILNVDENCLIQYELYKNQLQNNNSNGKEWSCKRKSQSSDDSDATVEEHISSSPQSTGLDGDTTTMDEDEELNSKIKLINLKRFLIDLSCWQYNLLKFELYEICNGMFSIINKFTNQDQGPFLSMPIGNDINSNTQTQVFSIIINGIVNSPPSLVEVYKEQYGIVPFILQVKDYNLELQKKLQLASTIDLTRKIAVNSRYFDQNASSSSVSSPSTYSSGTNYTPMRNFSAQSDNSVFSTTNIDHSSPITPHMYTFNQFKNESACDSAISVSSLPNQTQNGNMPLSSNYQNMMLEERNKENRIPNSSSAEIPQRAKFMTTGIFQNTGELTNRASSISLSLRNHNSSQL
modifications: autophosphorylated in Cln1/Cdc28 complexes with ATP; sites not stated
- percent of the input associated (% of the input) [4]: 6
- percent of the input associated (% of the input) [5]: 40

B3: phosphorylated Cln2HA (protein, S. cerevisiae, UniProt P20438 1-545, looked up, not shown: small tags and cut ends)
chain: MASAEPRPRMGLVINAKPDYYPIELSNAELLSHFEMLQEYHQEISTNVIAQSCKFKPNPKLIDQQPEMNPVETRSNIITFLFELSVVTRVTNGIFFHSVRLYDRYCSKRIVLRDQAKLVVATCLWLAAKTWGGCNHIINNVVIPTGGRFYGPNPRARIPRLSELVHYCGDGQVFDESMFLQMERHILDTLNWNIYEPMINDYVLNVDENCLMQYELYENQVTYDKQCSEKRQSQLSQDSDATVDERPYQNEEEEEEDLKLKIKLINLKKFLIDVSAWQYDLLRYELFEVSHGIFSIINQFTNQDHGPFLMTPMTSESKNGEILSTLMNGIVSIPNSLMEVYKTVNGVLPFINQVKEYHLDLQRKLQIASNLNISRKLTISTPSCSFENSNSTSIPSPASSSQSHTPMRNMSSLSDNSVFSRNMEQSSPITPSMYQFGQQQSNSICGSTVSVNSLVNTNNKQRIYEQITGPNSNNATNDYIDLLNLNESNKENQNPATAHYLNGGPPKTSFINHGMFPSPTGTINSGKSSSASSLISFGMGNTQVI
modifications: autophosphorylated in Cln2/Cdc28 complexes with ATP; sites not stated
- percent of the input associated (% of the input) [4]: 6
- percent of the input associated (% of the input) [5]: 40

B4: Cdc34 (enzyme, S. cerevisiae, UniProt P14682 1-295, looked up)
chain: MSSRKSTASSLLLRQYRELTDPKKAIPSFHIELEDDSNIFTWNIGVMVLNEDSIYHGGFFKAQMRFPEDFPFSPPQFRFTPAIYHPNVYRDGRLCISILHQSGDPMTDEPDAETWSPVQTVESVLISIVSLLEDPNINSPANVDAAVDYRKNPEQYKQRVKMEVERSKQDIPKGFIMPTSESAYISQSKLDEPESNKDMADNFWYDSDLDDDENGSVILQDDDYDDGNNHIPFEDDDVYNYNDNDDDDERIEFEDDDDDDDDSIDNDSVMDRKQPHKAEDESEDVEDVERVSKKI
notes: Untagged baculovirus form in the assembly experiments; also called E2 Cdc34
- binding result [6]: binds

B5: Cdc4 (other, S. cerevisiae, UniProt P07834 1-779, looked up)
chain: MGSFPLAEFPLRDIPVPYSYRVSGGIASSGSVTALVTAAGTHRNSSTAKTVETEDGEEDIDEYQRKRAAGSGESTPERSDFKRVKHDNHKTLHPVNLQNTGAASVDNDGLHNLTDISNDAEKLLMSVDDGSAAPSTLSVNMGVASHNVAAPTTVNAATITGSDVSNNVNSATINNPMEEGALPLSPTASSPGTTTPLAKTTKTINNNNNIADLIESKDSIISPEYLSDEIFSAINNNLPHAYFKNLLFRLVANMDRSELSDLGTLIKDNLKRDLITSLPFEISLKIFNYLQFEDIINSLGVSQNWNKIIRKSTSLWKKLLISENFVSPKGFNSLNLKLSQKYPKLSQQDRLRLSFLENIFILKNWYNPKFVPQRTTLRGHMTSVITCLQFEDNYVITGADDKMIRVYDSINKKFLLQLSGHDGGVWALKYAHGGILVSGSTDRTVRVWDIKKGCCTHVFKGHNSTVRCLDIVEYKNIKYIVTGSRDNTLHVWKLPKESSVPDHGEEHDYPLVFHTPEENPYFVGVLRGHMASVRTVSGHGNIVVSGSYDNTLIVWDVAQMKCLYILSGHTDRIYSTIYDHERKRCISASMDTTIRIWDLENIWNNGECSYATNSASPCAKILGAMYTLQGHTALVGLLRLSDKFLVSAAADGSIRGWDANDYSRKFSYHHTNLSAITTFYVSDNILVSGSENQFNIYNLRSGKLVHANILKDADQIWSVNFKGKTLVAAVEKDGQSFLEILDFSKASKINYVSNPVNSSSSSLESISTSLGLTRTTIIP
notes: Untagged, expressed from baculovirus in insect cells
- fold lower level of Cdc4 in immune complexes lacking Skp1 than in the presence of Skp1 [7]: > 10 fold
